Source: patent US20150344570A1 (published 2015)

T1: FcγRIIb extracellular domain with C-terminal His tag (human, UniProt P31994 43-217)
T1 construct: extracellular domain; also called 2b; FcgRIIb; not shown: His tag at the C terminus
T1 sequence (looked up): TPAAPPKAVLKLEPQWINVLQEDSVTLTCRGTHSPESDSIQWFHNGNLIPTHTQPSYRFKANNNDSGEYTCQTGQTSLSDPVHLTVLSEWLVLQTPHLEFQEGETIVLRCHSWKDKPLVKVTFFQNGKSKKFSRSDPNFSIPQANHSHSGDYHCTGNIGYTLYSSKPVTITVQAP

B1: GpH7-A5/GpH7-B3 variant H268_20W/GpL16-k0 (antibody, human IgG1, kappa)
heavy 1: not shown
heavy 2: not shown
light: DIVMTQSPLSLPVTPGEPASISCQASESLVHSNRNTYLHWYLQKPGQSPQLLIYKVSNRFSGVPDRFSGSGSGTDFTLKISRVEAEDVGVYYCSQNTHVPPTFGQGTKVEIERTVAAPSVFIFPPSDEQLKSGTASVVCLLNNFYPREAKVQWKVDNALQSGNSQESVTEQDSKDSTYSLSSTLTLSKADYEKHKVYACEVTHQGLSSPVTKSFNRGEC
notes: IgG1, anti-glypican-3; also called He Ab
B2: GpH7-A5/GpH7-B3 variant K326_20W/GpL16-k0 (antibody, human IgG1, kappa)
heavy 1: not shown
heavy 2: not shown
light: B1 light
notes: as for B1
B3: GpH7-A5/GpH7-B3 variant S267_14T/GpL16-k0 (antibody, human IgG1, kappa)
heavy 1: not shown
heavy 2: not shown
light: B1 light
notes: as for B1
B4: GpH7-A5/GpH7-B3 variant V266_06M/GpL16-k0 (antibody, human IgG1, kappa)
heavy 1: not shown
heavy 2: not shown
light: B1 light
notes: as for B1
B5: GpH7-A5/GpH7-B3 variant S239_06M/GpL16-k0 (antibody, human IgG1, kappa)
heavy 1: not shown
heavy 2: not shown
light: B1 light
notes: as for B1
B6: GpH7-A5/GpH7-B3 variant P238_08L/GpL16-k0 (antibody, human IgG1, kappa)
heavy 1: not shown
heavy 2: not shown
light: B1 light
notes: as for B1
B7: GpH7-A5/GpH7-B3 variant S267_19Q/GpL16-k0 (antibody, human IgG1, kappa)
heavy 1: not shown
heavy 2: not shown
light: B1 light
notes: as for B1
B8: GpH7-A5/GpH7-B3 variant S239_05P/GpL16-k0 (antibody, human IgG1, kappa)
heavy 1: not shown
heavy 2: not shown
light: B1 light
notes: as for B1
B9: GpH7-A5/GpH7-B3 variant P238_20W/GpL16-k0 (antibody, human IgG1, kappa)
heavy 1: not shown
heavy 2: not shown
light: B1 light
notes: as for B1
B10: GpH7-A5/GpH7-B3 variant S239_07I/GpL16-k0 (antibody, human IgG1, kappa)
heavy 1: not shown
heavy 2: not shown
light: B1 light
notes: as for B1
B11: GpH7-A5/GpH7-B3 variant S239_03V/GpL16-k0 (antibody, human IgG1, kappa)
heavy 1: not shown
heavy 2: not shown
light: B1 light
notes: as for B1
B12: GpH7-A5/GpH7-B3 variant P238_03V/GpL16-k0 (antibody, human IgG1, kappa)
heavy 1: not shown
heavy 2: not shown
light: B1 light
notes: as for B1
B13: GpH7-A5/GpH7-B3 variant P238_15Y/GpL16-k0 (antibody, human IgG1, kappa)
heavy 1: not shown
heavy 2: not shown
light: B1 light
notes: as for B1
B14: GpH7-A5/GpH7-B3 variant S298_06M/GpL16-k0 (antibody, human IgG1, kappa)
heavy 1: not shown
heavy 2: not shown
light: B1 light
notes: as for B1
B15: GpH7-A5/GpH7-B3 variant N325_01G/GpL16-k0 (antibody, human IgG1, kappa)
heavy 1: not shown
heavy 2: not shown
light: B1 light
notes: as for B1
B16: GpH7-A5/GpH7-B3 variant S267_01G/GpL16-k0 (antibody, human IgG1, kappa)
heavy 1: not shown
heavy 2: not shown
light: B1 light
notes: as for B1
B17: GpH7-A5/GpH7-B3 variant S267_06M/GpL16-k0 (antibody, human IgG1, kappa)
heavy 1: not shown
heavy 2: not shown
light: B1 light
notes: as for B1
B18: GpH7-A5/GpH7-B3 variant P238_04F/GpL16-k0 (antibody, human IgG1, kappa)
heavy 1: not shown
heavy 2: not shown
light: B1 light
notes: as for B1
B19: GpH7-A5/GpH7-B3 variant K326_16H/GpL16-k0 (antibody, human IgG1, kappa)
heavy 1: not shown
heavy 2: not shown
light: B1 light
notes: as for B1
B20: GpH7-A5/GpH7-B3 variant S267_07I/GpL16-k0 (antibody, human IgG1, kappa)
heavy 1: not shown
heavy 2: not shown
light: B1 light
notes: as for B1
B21: GpH7-A5/GpH7-B3 variant S298_08L/GpL16-k0 (antibody, human IgG1, kappa)
heavy 1: not shown
heavy 2: not shown
light: B1 light
notes: as for B1
B22: GpH7-A5/GpH7-B3 variant P271_10E/GpL16-k0 (antibody, human IgG1, kappa)
heavy 1: not shown
heavy 2: not shown
light: B1 light
notes: as for B1
B23: GpH7-A5/GpH7-B3 variant P271_09D/GpL16-k0 (antibody, human IgG1, kappa)
heavy 1: not shown
heavy 2: not shown
light: B1 light
notes: as for B1
B24: GpH7-A5/GpH7-B3 variant S267_10E/GpL16-k0 (antibody, human IgG1, kappa)
heavy 1: not shown
heavy 2: not shown
light: B1 light
notes: as for B1
B25: GpH7-A5/GpH7-B3 variant P238_06M/GpL16-k0 (antibody, human IgG1, kappa)
heavy 1: not shown
heavy 2: not shown
light: B1 light
notes: as for B1
B26: GpH7-A5/GpH7-B3 variant S267_03V/GpL16-k0 (antibody, human IgG1, kappa)
heavy 1: not shown
heavy 2: not shown
light: B1 light
notes: as for B1
B27: GpH7-A5/GpH7-B3 variant P238_16H/GpL16-k0 (antibody, human IgG1, kappa)
heavy 1: not shown
heavy 2: not shown
light: B1 light
notes: as for B1
B28: GpH7-A5/GpH7-B3 variant P238_19Q/GpL16-k0 (antibody, human IgG1, kappa)
heavy 1: not shown
heavy 2: not shown
light: B1 light
notes: as for B1
B29: GpH7-A5/GpH7-B3 variant Y300_19Q/GpL16-k0 (antibody, human IgG1, kappa)
heavy 1: not shown
heavy 2: not shown
light: B1 light
notes: as for B1
B30: GpH7-A5/GpH7-B3 variant S267_08L/GpL16-k0 (antibody, human IgG1, kappa)
heavy 1: not shown
heavy 2: not shown
light: B1 light
notes: as for B1
B31: GpH7-A5/GpH7-B3 variant P271_08L/GpL16-k0 (antibody, human IgG1, kappa)
heavy 1: not shown
heavy 2: not shown
light: B1 light
notes: as for B1
B32: GpH7-A5/GpH7-B3 variant S239_01G/GpL16-k0 (antibody, human IgG1, kappa)
heavy 1: not shown
heavy 2: not shown
light: B1 light
notes: as for B1
B33: GpH7-A5/GpH7-B3 variant L235_09D/GpL16-k0 (antibody, human IgG1, kappa)
heavy 1: not shown
heavy 2: not shown
light: B1 light
notes: as for B1
B34: GpH7-A5/GpH7-B3 variant S239_08L/GpL16-k0 (antibody, human IgG1, kappa)
heavy 1: not shown
heavy 2: not shown
light: B1 light
notes: as for B1

Columns and labels:
[1] = biological target: T2, FcγRIIIa extracellular domain with C-terminal His tag (human, UniProt P08637 17-208); assay: SPR (Biacore), relative to GpH7-A5/GpH7-B3/GpL16-k0 = 100
T2 construct: extracellular domain; also called 3a; FcgRIIIa; not shown: His tag at the C terminus

[2] = biological target: T1, FcγRIIb extracellular domain with …; assay: as above

T2 sequence (P08637 17-208): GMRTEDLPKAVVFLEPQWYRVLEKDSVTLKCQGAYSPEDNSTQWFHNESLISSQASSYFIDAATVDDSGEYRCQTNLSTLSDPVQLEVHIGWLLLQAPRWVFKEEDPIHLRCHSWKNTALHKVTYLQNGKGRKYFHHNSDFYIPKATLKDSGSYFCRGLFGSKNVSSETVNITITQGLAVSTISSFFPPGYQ

| Binder | He/Con_3a [1] | He/Con_2b [2] |
| --- | --- | --- |
| B1 | 82.8 % (control = 100) | 111 % (control = 100) |
| B2 | 84.8 % (control = 100) | 148 % (control = 100) |
| B3 | 45.6 % (control = 100) | 104 % (control = 100) |
| B4 | 85.8 % (control = 100) | 251 % (control = 100) |
| B5 | 78.2 % (control = 100) | 101 % (control = 100) |
| B6 | 75.5 % (control = 100) | 204 % (control = 100) |
| B7 | 65 % (control = 100) | 218 % (control = 100) |
| B8 | 14.9 % (control = 100) | 102 % (control = 100) |
| B9 | 49.7 % (control = 100) | 123 % (control = 100) |
| B10 | 79.3 % (control = 100) | 107 % (control = 100) |
| B11 | 76.6 % (control = 100) | 108 % (control = 100) |
| B12 | 43.8 % (control = 100) | 120 % (control = 100) |
| B13 | 64.5 % (control = 100) | 218 % (control = 100) |
| B14 | 92.6 % (control = 100) | 102 % (control = 100) |
| B15 | 28 % (control = 100) | 101 % (control = 100) |
| B16 | 53.8 % (control = 100) | 105 % (control = 100) |
| B17 | 66 % (control = 100) | 210 % (control = 100) |

| Binder | He/Con_3a [1] | He/Con_2b [2] |
| --- | --- | --- |
| B18 | 46.7 % (control = 100) | 312 % (control = 100) |
| B19 | 96.1 % (control = 100) | 119 % (control = 100) |
| B20 | 25.2 % (control = 100) | 192 % (control = 100) |
| B21 | 73.5 % (control = 100) | 108 % (control = 100) |
| B22 | 93.6 % (control = 100) | 109 % (control = 100) |
| B23 | 93.1 % (control = 100) | 120 % (control = 100) |
| B24 | 91.9 % (control = 100) | 379 % (control = 100) |
| B25 | 30.5 % (control = 100) | 174 % (control = 100) |
| B26 | 30.8 % (control = 100) | 192 % (control = 100) |
| B27 | 30.7 % (control = 100) | 115 % (control = 100) |
| B28 | 55.8 % (control = 100) | 110 % (control = 100) |
| B29 | 96.3 % (control = 100) | 108 % (control = 100) |
| B30 | 19.5 % (control = 100) | 109 % (control = 100) |
| B31 | 71 % (control = 100) | 103 % (control = 100) |
| B32 | 76.2 % (control = 100) | 144 % (control = 100) |
| B33 | 91.6 % (control = 100) | 106 % (control = 100) |
| B34 | 95.3 % (control = 100) | 140 % (control = 100) |
